# Values of other authors as cited in paper PMC2846219.
# pKd: −log10 of the molar value. Where two headings read alike, the source gives them in different places.
# Experiments:
# [1] = target: PCNA (Homo sapiens) (UniProt P12004)
# [2] = target: PCNA (Homo sapiens) (UniProt P12004); remark: listed apart in the source
# UniProt P12004, sequence (P12004 whole entry): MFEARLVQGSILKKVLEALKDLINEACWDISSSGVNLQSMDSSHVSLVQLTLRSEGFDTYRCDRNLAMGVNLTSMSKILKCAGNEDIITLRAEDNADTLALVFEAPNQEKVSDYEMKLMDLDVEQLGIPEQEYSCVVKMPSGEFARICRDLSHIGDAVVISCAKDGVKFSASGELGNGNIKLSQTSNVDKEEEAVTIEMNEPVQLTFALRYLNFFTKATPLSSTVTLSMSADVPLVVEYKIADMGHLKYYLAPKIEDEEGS
substance,measurement,setting,value
DNA polymerase iota PIP peptide PIP peptide (from UniProt Q9UNA4),pKd,[1],6.41
DNA polymerase eta PIP peptide PIP peptide (from UniProt Q9Y253),pKd,[2],6.40
